Measurements from patent US7067277 (H LUNDBECK A S, dated 2006).

T1: human α2C adrenergic receptor (human, UniProt P18825 1-462)
T1 sequence (looked up): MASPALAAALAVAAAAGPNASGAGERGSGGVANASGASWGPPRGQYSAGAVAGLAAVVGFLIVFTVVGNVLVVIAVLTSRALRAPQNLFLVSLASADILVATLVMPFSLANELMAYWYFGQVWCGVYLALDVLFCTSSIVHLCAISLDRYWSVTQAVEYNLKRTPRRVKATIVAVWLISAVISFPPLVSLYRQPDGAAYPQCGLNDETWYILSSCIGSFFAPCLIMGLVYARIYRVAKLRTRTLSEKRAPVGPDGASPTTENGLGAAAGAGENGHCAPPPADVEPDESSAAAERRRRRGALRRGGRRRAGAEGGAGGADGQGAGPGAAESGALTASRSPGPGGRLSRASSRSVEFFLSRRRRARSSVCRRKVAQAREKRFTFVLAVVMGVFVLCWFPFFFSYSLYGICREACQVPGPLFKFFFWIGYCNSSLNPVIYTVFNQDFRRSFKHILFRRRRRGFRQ

T2: rat GALR1 receptor (rat, UniProt Q62805 1-346)
T2 sequence (looked up): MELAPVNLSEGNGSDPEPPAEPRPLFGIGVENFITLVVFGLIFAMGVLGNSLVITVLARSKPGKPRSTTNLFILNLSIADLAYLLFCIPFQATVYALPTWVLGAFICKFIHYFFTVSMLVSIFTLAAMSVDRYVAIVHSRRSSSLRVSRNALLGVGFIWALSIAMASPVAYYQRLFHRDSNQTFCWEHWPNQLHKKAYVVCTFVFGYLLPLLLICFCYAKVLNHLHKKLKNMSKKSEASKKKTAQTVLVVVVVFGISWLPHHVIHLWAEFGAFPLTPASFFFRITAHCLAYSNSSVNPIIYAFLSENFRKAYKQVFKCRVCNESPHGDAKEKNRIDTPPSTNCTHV

T3: human Y2 receptor (human, UniProt P49146 1-381)
T3 sequence (looked up): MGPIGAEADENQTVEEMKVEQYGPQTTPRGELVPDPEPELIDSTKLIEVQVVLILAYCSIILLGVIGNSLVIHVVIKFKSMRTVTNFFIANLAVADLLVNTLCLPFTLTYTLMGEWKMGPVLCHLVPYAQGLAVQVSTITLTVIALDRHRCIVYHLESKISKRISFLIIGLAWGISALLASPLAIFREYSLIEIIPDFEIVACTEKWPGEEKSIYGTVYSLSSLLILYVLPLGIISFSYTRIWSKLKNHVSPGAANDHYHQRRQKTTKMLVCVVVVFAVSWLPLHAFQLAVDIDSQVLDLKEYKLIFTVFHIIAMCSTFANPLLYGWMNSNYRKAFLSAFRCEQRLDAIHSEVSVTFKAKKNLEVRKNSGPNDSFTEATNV


Legend:
Assay in all cases: cell-based or functional assay
[1] = target: human dopamine D3 receptor (human, UniProt P35462 1-400)
human dopamine D3 receptor, sequence (P35462 whole entry): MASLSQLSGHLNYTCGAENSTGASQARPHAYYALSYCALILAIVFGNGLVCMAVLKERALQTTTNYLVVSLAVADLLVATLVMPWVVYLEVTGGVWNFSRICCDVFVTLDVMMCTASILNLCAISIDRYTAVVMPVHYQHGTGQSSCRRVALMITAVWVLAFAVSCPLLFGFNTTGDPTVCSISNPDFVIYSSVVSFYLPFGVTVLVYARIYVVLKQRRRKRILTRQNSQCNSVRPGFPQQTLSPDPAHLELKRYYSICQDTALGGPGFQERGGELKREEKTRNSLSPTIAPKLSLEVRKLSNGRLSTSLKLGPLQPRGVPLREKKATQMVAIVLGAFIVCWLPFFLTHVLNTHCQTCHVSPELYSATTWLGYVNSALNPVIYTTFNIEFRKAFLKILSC

[2] = target: T1, human α2C adrenergic receptor
[3] = target: human β2 adrenergic receptor (human, UniProt P07550 1-413)
human NPFF1 receptor = human NPFF1 receptor (human, UniProt Q9GZQ6 1-430)
human NPFF1 receptor, sequence (Q9GZQ6 whole entry): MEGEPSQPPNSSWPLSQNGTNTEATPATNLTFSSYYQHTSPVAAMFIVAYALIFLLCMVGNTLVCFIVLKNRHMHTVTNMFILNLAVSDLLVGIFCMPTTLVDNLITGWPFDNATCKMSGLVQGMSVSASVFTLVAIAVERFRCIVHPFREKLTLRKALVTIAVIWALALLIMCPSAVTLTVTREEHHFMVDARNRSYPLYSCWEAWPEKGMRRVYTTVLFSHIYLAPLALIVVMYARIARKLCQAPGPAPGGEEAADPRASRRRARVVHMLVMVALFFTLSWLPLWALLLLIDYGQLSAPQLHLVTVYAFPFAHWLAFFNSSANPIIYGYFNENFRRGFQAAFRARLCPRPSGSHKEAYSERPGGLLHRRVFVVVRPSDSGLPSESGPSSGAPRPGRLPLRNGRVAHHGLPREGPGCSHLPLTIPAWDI

human 5HT7 receptor = human 5HT7 receptor (human, UniProt P34969 1-479)
human 5HT7 receptor, sequence (P34969 whole entry): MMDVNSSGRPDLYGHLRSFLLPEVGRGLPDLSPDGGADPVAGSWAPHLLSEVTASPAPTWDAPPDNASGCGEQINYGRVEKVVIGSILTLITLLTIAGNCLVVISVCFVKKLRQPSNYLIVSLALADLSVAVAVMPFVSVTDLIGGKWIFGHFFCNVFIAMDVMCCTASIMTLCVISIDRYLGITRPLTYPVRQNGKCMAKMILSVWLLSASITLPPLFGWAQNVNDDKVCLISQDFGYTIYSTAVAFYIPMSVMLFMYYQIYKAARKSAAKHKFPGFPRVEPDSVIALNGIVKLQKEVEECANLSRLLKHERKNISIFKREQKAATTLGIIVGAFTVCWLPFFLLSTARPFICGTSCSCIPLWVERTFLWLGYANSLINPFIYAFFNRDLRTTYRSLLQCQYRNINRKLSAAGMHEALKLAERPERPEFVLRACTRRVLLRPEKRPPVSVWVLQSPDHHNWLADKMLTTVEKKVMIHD

rat GALR1 receptor = target: T2, rat GALR1 receptor
[4] = target: T4, human dopamine D1 receptor (human, UniProt P21728 1-446)
T4 sequence (P21728 whole entry): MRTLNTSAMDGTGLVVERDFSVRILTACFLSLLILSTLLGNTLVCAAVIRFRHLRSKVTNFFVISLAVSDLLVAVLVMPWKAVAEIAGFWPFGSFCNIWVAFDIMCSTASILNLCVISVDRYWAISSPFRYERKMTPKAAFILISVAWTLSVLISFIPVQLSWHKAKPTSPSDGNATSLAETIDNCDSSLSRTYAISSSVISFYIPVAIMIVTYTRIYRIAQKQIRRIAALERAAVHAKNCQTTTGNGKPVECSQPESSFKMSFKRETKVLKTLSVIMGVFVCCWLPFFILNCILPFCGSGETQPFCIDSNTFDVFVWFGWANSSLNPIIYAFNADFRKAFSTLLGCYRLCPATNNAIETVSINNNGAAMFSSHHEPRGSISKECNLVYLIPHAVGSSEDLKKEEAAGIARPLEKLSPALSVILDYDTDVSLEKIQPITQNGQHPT

rat Y4 receptor = rat Y4 receptor (rat, UniProt Q63447 1-375)
rat Y4 receptor, sequence (Q63447 whole entry): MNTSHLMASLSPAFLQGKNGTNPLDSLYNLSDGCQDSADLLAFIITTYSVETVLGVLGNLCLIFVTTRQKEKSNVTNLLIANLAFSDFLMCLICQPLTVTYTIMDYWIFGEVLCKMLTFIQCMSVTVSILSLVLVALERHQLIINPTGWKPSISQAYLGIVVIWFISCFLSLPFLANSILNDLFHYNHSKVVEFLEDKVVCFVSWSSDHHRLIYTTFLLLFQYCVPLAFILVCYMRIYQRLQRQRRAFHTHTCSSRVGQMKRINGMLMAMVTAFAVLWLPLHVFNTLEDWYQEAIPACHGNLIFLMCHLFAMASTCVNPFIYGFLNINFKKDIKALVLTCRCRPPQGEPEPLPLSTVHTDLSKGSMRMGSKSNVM

mouse 5HT5A receptor = mouse 5HT5A receptor (mouse, UniProt P30966 1-357)
mouse 5HT5A receptor, sequence (P30966 whole entry): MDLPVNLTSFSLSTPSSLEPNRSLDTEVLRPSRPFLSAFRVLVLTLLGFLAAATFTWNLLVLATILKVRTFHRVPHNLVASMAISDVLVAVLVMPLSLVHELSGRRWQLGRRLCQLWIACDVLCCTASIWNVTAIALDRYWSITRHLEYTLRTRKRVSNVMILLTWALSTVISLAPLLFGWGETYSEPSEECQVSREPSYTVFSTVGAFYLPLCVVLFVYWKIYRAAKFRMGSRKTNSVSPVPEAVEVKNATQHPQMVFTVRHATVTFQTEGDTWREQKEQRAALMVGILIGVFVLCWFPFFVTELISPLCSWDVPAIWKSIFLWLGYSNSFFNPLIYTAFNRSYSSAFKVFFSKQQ

human Y2 receptor = target: T3, human Y2 receptor
[5] = target: human kappa opioid receptor (human, UniProt P41145 1-380)
human kappa opioid receptor, sequence (P41145 whole entry): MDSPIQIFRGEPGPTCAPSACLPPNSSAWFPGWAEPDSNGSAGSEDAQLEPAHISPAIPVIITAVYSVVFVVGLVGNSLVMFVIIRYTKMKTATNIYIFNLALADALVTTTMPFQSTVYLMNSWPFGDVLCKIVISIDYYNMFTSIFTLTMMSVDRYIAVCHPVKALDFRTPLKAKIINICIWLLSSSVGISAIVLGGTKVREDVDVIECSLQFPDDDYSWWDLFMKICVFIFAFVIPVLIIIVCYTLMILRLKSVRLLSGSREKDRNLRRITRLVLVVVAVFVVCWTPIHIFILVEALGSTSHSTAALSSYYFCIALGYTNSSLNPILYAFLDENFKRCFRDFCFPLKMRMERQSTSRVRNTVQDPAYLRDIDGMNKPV

[6] = target: T4, human dopamine D1 receptor; remark: listed apart in the source

Binder | max Ca2+ signal, COS-7, FLIPR; agonist DA [1] | max Ca2+ signal, COS-7, FLIPR; agonist NE [2] | max Ca2+ signal, COS-7, FLIPR; agonist NE [3] | max Ca2+ signal, COS-7, FLIPR; agonist NPFF (human NPFF1 receptor) | max Ca2+ signal, COS-7, FLIPR; agonist 5HT (human 5HT7 receptor) | max Ca2+ signal, COS-7, FLIPR; agonist GAL (rat GALR1 receptor) | max Ca2+ signal, COS-7, FLIPR; agonist DA [4] | max Ca2+ signal, COS-7, FLIPR; agonist PP (rat Y4 receptor) | max Ca2+ signal, COS-7, FLIPR; agonist 5HT (mouse 5HT5A receptor) | max Ca2+ signal, COS-7, FLIPR; agonist NPY (human Y2 receptor) | max Ca2+ signal, COS-7, FLIPR; agonist U-69593 [5] | max Ca2+ signal, COS-7, FLIPR; 100 µM dopamine [6]
Human Gαq/z5 (Ala→Ser substitution at position 171) (other) MTLESIMACCLSEEAKEARRINDEIERQLRRDKRDARRELKLLLLGTGESGKSTFIKQMRIIHGSGYSDEDKRGFTKLVYQNIFTAMQAMIRAMDTLKIPYKYEHNKAHAQLVREVDVEKVSAFENPYVDAIKSLWNDPGIQECYDRRREYQLSDSTKYYLNDLDRVADPSYLPTQQDVLRVRVPTTGIIEYPFDLQSVIFRMVDVGGQRSERRKWIHCFENVTSIMFLVALSEYDQVLVESDNENRMEESKALFRTIITYPWFQNSSVILFLNKKDLLEEKIMYSHLVDYFPEYDGPQRDAQAAREFILKMFVDLNPDSDKIIYSHFTCATDTENIRFVFAAVKDTILQLNLKYIGLC | 0 fluorescence units | 6110 fluorescence units | 128 fluorescence units | 4720 fluorescence units | 90 fluorescence units | 82 fluorescence units | 0 fluorescence units | 4390 fluorescence units | 0 fluorescence units | 10900 fluorescence units | 7860 fluorescence units | 0 fluorescence units
C. elegans Gαq/z5 (other) MACCLSEEAREQKRINQEIEKQLQRDKRNARRELKLLLLGTGESGKSTFIKQMRIIHGQGYSEEDKRAHIRLVYQNVFMAIQSMIRAMDTLDIKFGNESEELQEKAAVVREVDFESVTSFEEPYVSYIKELWEDSGIQECYDRRREYQLTDSAKYYLSDLRRLAVPDYLPTEQDILRVRVPTTGIIEYPFDLEQIIFRMVDVGGQRSERRKWIHCFENVTSIMFLVALSEYDQVLVECDNENRMEESKALFRTIITYPWFTNSSVILFLNKKDLLEEKILYSHLADYFPEYDGPPRDPIAAREFILKMFVDLNPDADKIIYSHFTCATDTENIRFVFAAVKDTILQHNLKYIGLC | 0 fluorescence units | 4140 fluorescence units | 1840 fluorescence units | 6590 fluorescence units | 166 fluorescence units | 3090 fluorescence units | 12100 fluorescence units | 3660 fluorescence units | 351 fluorescence units | 7710 fluorescence units | 5980 fluorescence units | 4830 fluorescence units
C. elegans Gαq/z9 (other) MACCLSEEAREQKRINQEIEKQLQRDKRNARRELKLLLLGTGESGKSTFIKQMRIIHGQGYSEEDKRAHIRLVYQNVFMAIQSMIRAMDTLDIKFGNESEELQEKAAVVREVDFESVTSFEEPYVSYIKELWEDSGIQECYDRRREYQLTDSAKYYLSDLRRLAVPDYLPTEQDILRVRVPTTGIIEYPFDLEQIIFRMVDVGGQRSERRKWIHCFENVTSIMFLVALSEYDQVLVECDNENRMEESKALFRTIITYPWFTNSSVILFLNKKDLLEEKILYSHLADYFPEYDGPPRDPIAAREFILKMFVDLNPDADKIIYSHFTCATDTENIRFVFAAVKDTILQNNLKYIGLC | 121 fluorescence units | 3870 fluorescence units | 1700 fluorescence units | 2970 fluorescence units | 129 fluorescence units | 5950 fluorescence units | 13100 fluorescence units | 2580 fluorescence units | 270 fluorescence units | 5390 fluorescence units | 3470 fluorescence units | –
